Data as given in patent US20250152746A1, “BASE EDITING OF ANGPTL3 AND METHODS OF USING SAME FOR TREATMENT OF DISEASE” (Verve Therapeutics, Inc., priority 2020, published 2025).
In the oligonucleotide strings, read from the 5' end, every base follows the letter of its sugar. An asterisk marks phosphorothioate; unmarked linkages are phosphodiester. Other units and linkages are bracketed, terminal groups are in braces. A string of capitals states the bases alone. m = 2'-O-methyl; r = 2'-OH (RNA)

Assays:
PCSK9 gene [1] = test: PCSK9 gRNA/SpCas9 editing in primary human hepatocytes (Tables 2, 4); format: cell-based; settings: SpCas9 mRNA MS002 1:1 by weight; for Human Primary Hepatocyte Editing % 100: 100 ng/RNA/mL; for Human Primary Hepatocyte Editing % 500: 500 ng/RNA/mL; for Human Primary Hepatocyte Editing % 2500: 2500 ng/RNA/mL
Experimental: In set of experiments, PCSK9 gRNAs were co-transfected with an equivalent amount (1:1 ratio by weight) of in vitro transcribed commercially available SpCas9 mRNA MS002 purchased from TriLink Biotechnologies into primary human hepatocytes at 2500, 500, or 100 ng/RNA/mL and processed as described in detailed methods. Extracted genomic DNA was analyzed for gene editing at the target site with next-generation sequencing of PCR amplicons generated around the target sites. Samples were prepared using the Nextera XT DNA library preparation kit (Illumina) according to the manufacturer's protocol. Briefly, two rounds of PCR were performed first to amplify the region of interest and second to add DNA sequences required for next generation sequencing and sample identification to the initial product. The final amplicon was sequenced on the Illumina MiSeq instrument according to the manufacturer's protocol. A wide range of editing activities (Table 2) were observed. In a second set of experiments, ANGPTL3 gRNAs were co-transfected with an equivalent amount of in vitro transcribed SpCas9 mRNA (1:1 ratio by weight) into primary human hepatocytes and processed and analyzed similarly (Table 3).
PCSK9 gRNAs were co-transfected with an equivalent amount of in vitro transcribed SpCas9 mRNA MS002 (1:1 ratio by weight) into primary human hepatocytes and processed as described in detailed methods. A wide range of editing activities were observed (Table 4; ND=Not determined). The guides with the highest editing activity at five days post transfection were GA001, GA002, GA007, and GA008.
Human primary hepatocytes were transfected at 2500, 1250, 500, and 250 ng/test article/mL with SpCas9 mRNA MS002 and a gRNA targeting PCSK9 with modifications to the tracr. Genomic DNA was processed, sequenced, and analyzed as described in the detailed methods section. GA156 was transfected to serve as a positive control.
Plating, culturing, and transfection of primary hepatocytes. Primary human liver hepatocytes (PHH) and primary cynomolgus liver hepatocytes (PCH) from BioIVT were cultured per the manufacturer's protocol. Briefly, primary human hepatocytes and primary cyno hepatocytes were obtained as frozen aliquots from BioIVT. Four lots of primary human hepatocytes, each derived from a de-identified individual donor, were used for the experiments: STL (main donor) was used for all experiments, including screening experiments and off-target experiments; HLY, JLP, and TLY were used for off-target experiments. The HFG lot of primary cyno hepatocytes were used for experiments. Following the manufacturer's instructions, cells were thawed and rinsed prior to plating in 24-well plates that had been coated with bovine collagen overnight, with a density of approximate 350,000 cells/well in INVITROGRO hepatocyte medium supplemented with TORPEDO antibiotic mix (BioIVT). The cells were thawed and resuspended in hepatocyte thawing medium followed by centrifugation at 100 g for 10 min at 4° C. The supernatant was discarded, and the pelleted cells resuspended in hepatocyte plating medium. Each vial contains approximately 5 million cells that were used for plating one 24-well plate. Plated cells were allowed to settle and adhere for 4-6 h in a tissue culture incubator at 37° C. under 5% CO2 atmosphere. After incubation, cells were checked for monolayer formation. The incubating media were then replaced with fresh hepatocyte maintenance media (complete INVITROGRO medium obtained from BioIVT, the cell line provider). The cells thus became ready for transfection. Each of the gRNAs were co-transfected with an equivalent amount of in vitro transcribed ABE8.8 mRNA (1:1 ratio by molecular weight) into primary human hepatocytes via MessengerMax reagent (Lipofectamine), using various dilutions to assess for editing activity at different concentrations of test article. MessengerMAX from Thermo Fisher is used for transfection. […]

PCSK9 gene [2] = test: PCSK9 gRNA/SpCas9 editing in primary cynomolgus hepatocytes (Tables 2, 22); format: cell-based, cynomolgus monkey; settings: SpCas9 mRNA MS002 1:1 by weight; for Cyno Primary Hepatocyte Editing % 100: 100 ng/RNA/mL; for Cyno Primary Hepatocyte Editing % 500: 500 ng/RNA/mL; for Cyno Primary Hepatocyte Editing % 2500: 2500 ng/RNA/mL

B1: GA192: PCSK9 gRNA; protospacer CCATGTCGACTACATCGAGG (SEQ ID NO: 186) (nucleic acid)
guide: mC*mC*mA*rUrGrUrCrGrArCrUrArCrArUrCrGrArGrGrGrUrUrUrUrArGrArGrCrUrArGrArArArUrArGrCrArArGrUrUrArArArArUrArArGrGrCrUrArGrUrCrCrGrUrUrArUrCrArArCrUrUrGrArArArArArGrUrGrGrCrArCrCrGrArGrUrCrGrGrUrGrCrU*mU*mU*mU
Human Primary Hepatocyte Editing % 100 (PCSK9 gene [1]): 1.14%
Human Primary Hepatocyte Editing % 500 (PCSK9 gene [1]): 6.02%
Human Primary Hepatocyte Editing % 2500 (PCSK9 gene [1]): 16.7%
Cyno Primary Hepatocyte Editing % 100 (PCSK9 gene [2]): 0.60%
Cyno Primary Hepatocyte Editing % 500 (PCSK9 gene [2]): 1.50%
Cyno Primary Hepatocyte Editing % 2500 (PCSK9 gene [2]): 10.26%

B2: GA193: PCSK9 gRNA; protospacer GGGGCTGGTATTCATCCGCC (SEQ ID NO: 187) (nucleic acid)
guide: GGGGCUGGUAUUCAUCCGCCGUUUUAGAGCUAGAAAUAGCAAGUUAAAAUAAGGCUAGUCCGUUAUCAACUUGAAAAAGUGGCACCGAGUCGGUGCUUUU
modifications: sugars from the 5' end m3 r94 m3, linkages s3 o93 s3 (s phosphorothioate, o phosphodiester), T or U not given here
Human Primary Hepatocyte Editing % 100 (PCSK9 gene [1]): 3.92%
Human Primary Hepatocyte Editing % 500 (PCSK9 gene [1]): 15.68%
Human Primary Hepatocyte Editing % 2500 (PCSK9 gene [1]): 35.77%
Cyno Primary Hepatocyte Editing % 100 (PCSK9 gene [2]): 8.70%
Cyno Primary Hepatocyte Editing % 500 (PCSK9 gene [2]): 32.02%
Cyno Primary Hepatocyte Editing % 2500 (PCSK9 gene [2]): 52.89%

B3: GA196: PCSK9 gRNA; protospacer GAGTGACCACCGGGAAATCG (SEQ ID NO: 190) (nucleic acid)
guide: GAGUGACCACCGGGAAAUCGGUUUUAGAGCUAGAAAUAGCAAGUUAAAAUAAGGCUAGUCCGUUAUCAACUUGAAAAAGUGGCACCGAGUCGGUGCUUUU
modifications: sugars from the 5' end m3 r94 m3, linkages s3 o93 s3 (s phosphorothioate, o phosphodiester), T or U not given here
Human Primary Hepatocyte Editing % 100 (PCSK9 gene [1]): 0.75%
Human Primary Hepatocyte Editing % 500 (PCSK9 gene [1]): 2.9%
Human Primary Hepatocyte Editing % 2500 (PCSK9 gene [1]): 17.19%
Cyno Primary Hepatocyte Editing % 100 (PCSK9 gene [2]): 1.09%
Cyno Primary Hepatocyte Editing % 500 (PCSK9 gene [2]): 3.4%
Cyno Primary Hepatocyte Editing % 2500 (PCSK9 gene [2]): 27.79%

B4: GA188: PCSK9 gRNA; protospacer TATTCATCCGCCCGGTACCG (SEQ ID NO: 182) (nucleic acid)
guide: mU*mA*mU*rUrCrArUrCrCrGrCrCrCrGrGrUrArCrCrGrGrUrUrUrUrArGrArGrCrUrArGrArArArUrArGrCrArArGrUrUrArArArArUrArArGrGrCrUrArGrUrCrCrGrUrUrArUrCrArArCrUrUrGrArArArArArGrUrGrGrCrArCrCrGrArGrUrCrGrGrUrGrCrU*mU*mU*mU
Human Primary Hepatocyte Editing % 100 (PCSK9 gene [1]): 4.21%
Human Primary Hepatocyte Editing % 500 (PCSK9 gene [1]): 15.38%
Human Primary Hepatocyte Editing % 2500 (PCSK9 gene [1]): 41.02%
Cyno Primary Hepatocyte Editing % 100 (PCSK9 gene [2]): 0.01%
Cyno Primary Hepatocyte Editing % 500 (PCSK9 gene [2]): 0.01%
Cyno Primary Hepatocyte Editing % 2500 (PCSK9 gene [2]): 0.06%

B5: GA191: PCSK9 gRNA; protospacer GCCCCATGTCGACTACATCG (SEQ ID NO: 185) (nucleic acid)
guide: mG*mC*mC*rCrCrArUrGrUrCrGrArCrUrArCrArUrCrGrGrUrUrUrUrArGrArGrCrUrArGrArArArUrArGrCrArArGrUrUrArArArArUrArArGrGrCrUrArGrUrCrCrGrUrUrArUrCrArArCrUrUrGrArArArArArGrUrGrGrCrArCrCrGrArGrUrCrGrGrUrGrCrU*mU*mU*mU
Human Primary Hepatocyte Editing % 100 (PCSK9 gene [1]): 3%
Human Primary Hepatocyte Editing % 500 (PCSK9 gene [1]): 12.2%
Human Primary Hepatocyte Editing % 2500 (PCSK9 gene [1]): 34.6%
Cyno Primary Hepatocyte Editing % 100 (PCSK9 gene [2]): 5.46%
Cyno Primary Hepatocyte Editing % 500 (PCSK9 gene [2]): 26.79%
Cyno Primary Hepatocyte Editing % 2500 (PCSK9 gene [2]): 51.79%

B6: GA194: PCSK9 gRNA; protospacer GTCGACATGGGGCAACTTCA (SEQ ID NO: 188) (nucleic acid)
guide: GUCGACAUGGGGCAACUUCAGUUUUAGAGCUAGAAAUAGCAAGUUAAAAUAAGGCUAGUCCGUUAUCAACUUGAAAAAGUGGCACCGAGUCGGUGCUUUU
modifications: sugars from the 5' end m3 r94 m3, linkages s3 o93 s3 (s phosphorothioate, o phosphodiester), T or U not given here
Human Primary Hepatocyte Editing % 100 (PCSK9 gene [1]): 2.32%
Human Primary Hepatocyte Editing % 500 (PCSK9 gene [1]): 12.39%
Human Primary Hepatocyte Editing % 2500 (PCSK9 gene [1]): 32.97%
Cyno Primary Hepatocyte Editing % 100 (PCSK9 gene [2]): 2.38%
Cyno Primary Hepatocyte Editing % 500 (PCSK9 gene [2]): 9.49%
Cyno Primary Hepatocyte Editing % 2500 (PCSK9 gene [2]): 30.91%

B7: GA189: PCSK9 gRNA; protospacer TCCTCGATGTAGTCGACATG (SEQ ID NO: 183) (nucleic acid)
guide: mU*mC*mC*rUrCrGrArUrGrUrArGrUrCrGrArCrArUrGrGrUrUrUrUrArGrArGrCrUrArGrArArArUrArGrCrArArGrUrUrArArArArUrArArGrGrCrUrArGrUrCrCrGrUrUrArUrCrArArCrUrUrGrArArArArArGrUrGrGrCrArCrCrGrArGrUrCrGrGrUrGrCrU*mU*mU*mU
Human Primary Hepatocyte Editing % 100 (PCSK9 gene [1]): 1.76%
Human Primary Hepatocyte Editing % 500 (PCSK9 gene [1]): 8.94%
Human Primary Hepatocyte Editing % 2500 (PCSK9 gene [1]): 31.23%
Cyno Primary Hepatocyte Editing % 100 (PCSK9 gene [2]): 3.30%
Cyno Primary Hepatocyte Editing % 500 (PCSK9 gene [2]): 15.58%
Cyno Primary Hepatocyte Editing % 2500 (PCSK9 gene [2]): 41.70%

B8: GA187: PCSK9 gRNA; protospacer CTCCTCGATGTAGTCGACAT (SEQ ID NO: 181) (nucleic acid)
guide: mC*mU*mC*rCrUrCrGrArUrGrUrArGrUrCrGrArCrArUrGrUrUrUrUrArGrArGrCrUrArGrArArArUrArGrCrArArGrUrUrArArArArUrArArGrGrCrUrArGrUrCrCrGrUrUrArUrCrArArCrUrUrGrArArArArArGrUrGrGrCrArCrCrGrArGrUrCrGrGrUrGrCrU*mU*mU*mU
Human Primary Hepatocyte Editing % 100 (PCSK9 gene [1]): 2.44%
Human Primary Hepatocyte Editing % 500 (PCSK9 gene [1]): 6.47%
Cyno Primary Hepatocyte Editing % 100 (PCSK9 gene [2]): 3.77%
Cyno Primary Hepatocyte Editing % 500 (PCSK9 gene [2]): 12.30%
Cyno Primary Hepatocyte Editing % 2500 (PCSK9 gene [2]): 29.24%

B9: GA157: PCSK9 gRNA; protospacer GCCGTCCTCCTCGGAACGCA (SEQ ID NO: 151) (nucleic acid)
guide: mG*mC*mC*rGrUrCrCrUrCrCrUrCrGrGrArArCrGrCrArGrUrUrUrUrArGrArGrCrUrArGrArArArUrArGrCrArArGrUrUrArArArArUrArArGrGrCrUrArGrUrCrCrGrUrUrArUrCrArArCrUrUrGrArArArArArGrUrGrGrCrArCrCrGrArGrUrCrGrGrUrGrCrU*mU*mU*mU
Human Primary Hepatocyte Editing % 100 (PCSK9 gene [1]): 0.62%
Human Primary Hepatocyte Editing % 500 (PCSK9 gene [1]): 2.82%
Human Primary Hepatocyte Editing % 2500 (PCSK9 gene [1]): 10.03%
Cyno Primary Hepatocyte Editing % 100 (PCSK9 gene [2]): 0.78%
Cyno Primary Hepatocyte Editing % 500 (PCSK9 gene [2]): 2.93%
Cyno Primary Hepatocyte Editing % 2500 (PCSK9 gene [2]): 13.78%

B10: GA195: PCSK9 gRNA; protospacer ACCACCGGGAAATCGAGGGC (SEQ ID NO: 189) (nucleic acid)
guide: ACCACCGGGAAAUCGAGGGCGUUUUAGAGCUAGAAAUAGCAAGUUAAAAUAAGGCUAGUCCGUUAUCAACUUGAAAAAGUGGCACCGAGUCGGUGCUUUU
modifications: sugars from the 5' end m3 r94 m3, linkages s3 o93 s3 (s phosphorothioate, o phosphodiester), T or U not given here
Human Primary Hepatocyte Editing % 100 (PCSK9 gene [1]): 3.58%
Human Primary Hepatocyte Editing % 500 (PCSK9 gene [1]): 13.3%
Human Primary Hepatocyte Editing % 2500 (PCSK9 gene [1]): 12.57%
Cyno Primary Hepatocyte Editing % 100 (PCSK9 gene [2]): 0.69%
Cyno Primary Hepatocyte Editing % 500 (PCSK9 gene [2]): 4.77%
Cyno Primary Hepatocyte Editing % 2500 (PCSK9 gene [2]): 18.78%
